Data reported in the DeepSol protein solubility set.

Experiment: soluble on expression in E. coli; label from the status in PepcDB or PDB records

MTHLGGKVRSSGFLIPGSAPVSGTPPQGQGGLASSRVYEDSGGSLLSFSPMIHPNLAPLIAPSAYARLNLLNHCIFLEAFKEENSGQGLGGVQREVLFLKRDIIKQVIARIVAADSTLDLVNHGEPGREAPRRAQ
soluble on expression in E. coli: not soluble

QDPDGLLGDKKDVGITCALIPADHDGVEIGERHDPLGSAFMNGPTRGEDVFIPMDWLIGGSDYAGKGWRMLVECLSAGRGISLPALGTAIGHLTTRTTGAYAYVRKQFGMSIGKFEGVAEAMGRIGGLTYLLEATRTLTTTSLDMKEKPGIVTAIAKYHMTEIARTILNDSFDIHAGRAIQDGPMNYLAKHYLGIPVAITVEGANILTRNLMIFGQGATRCHPYVLKEMEAAANPDSEQGAKEFDSLLFKH
soluble on expression in E. coli: not soluble

GPGSMESQKRMMWNLKGRSAVAALDPSTRHRIMQSHAMASSFHKPLLATLEVLITPQYVGGLTGPLQKPEPFICHVTRLLQITPDPSIVLAMLHQDVHKYLRVAALFIIRLIGNEAMMREAMRVGWEDYRKIRVYGYVEDLAGTIDSKENNAPDEEEGFVRAPAYGIMCVDEITDRLFNVGESDINKNGGSGNLWLGLRLPPILL
soluble on expression in E. coli: not soluble

MGSDKIHHHHHHMINQIYQLTKPKFINVKYQEEAIDQENHILIRPNYMAVCHADQRYYQGKRDPKILNKKLPMAMIHESCGTVISDPTGTYEVGQKVVMIPNQSPMQSDEEFYENYMTGTHFLSSGFDGFMREFVSLPKDRVVAYDAIEDTVAAITEFVSVGMHAMNRLLTLAHSKRERIAVIGDGSLAFVVANIINYTLPEAEIVVIGRHWEKLELFSFAKECYITDNIPEDLAFDHAFECCGGDGTGPAINDLIRYIRPQGTILMMGVSEYKVNLNTRDALEKGLILVGSSRSGRIDFENAIQMMEVKKFANRLKNILYLEEPVREIKDIHRVFATDLNTAFKTVFKWEV
soluble on expression in E. coli: not soluble

GAMAMRIYYIGVFRSGGEKALELSEVKDLSQFGFFERSSVGQFMTFFAETVASRTGAGQRQSIEEGNYIGHVYARSEGICGVLITDKEYPVRPAYTLLNKILDEYLVAHPKEEWADVTETNDALKMKQLDTYISKYQDPSQADA
soluble on expression in E. coli: soluble

QKVTSLTACLVDQSLRLDCRHENTSSSPIQYEFSLTRETKKHVLFGTVGVPEHTYRSRTNFTSKYNMKVLYLSAFTSKDEGTYTCALHHSGHSPPISSQNVTVLRDKLVKCEGISLLAQNTSWLLLLLLSLSLLQATDFMSL
soluble on expression in E. coli: not soluble

MPSLVIQDGGASIIRAVRPEEFAPQAPGKLLAIGRGVYAFLPDPLPPRLEWSLRLIALLDEARGALGELAGLLRQLPNPYLFIRPFIQKEAVLSSRIEGTQAGLLDVYALEAQVPLFPSPKLREDAQEVLNYIRALERGRELLQEIPLSLRLLKEVHAVLLRGVRGGGRAPGEFRRAQNWIGPPGSSLEEARYVPPPPGPMLEALDALERFWHSDHGLPPLVEIALVHYQFEAIHPFLDGNGRMGRLLITLMLLERGLLPEPALYLSAYFERHRTLYYDLLLGVSQRGAWEDWLAFFLEGVRTEAKDVAERARRLLDLWREWRERYGRKGGSAHILGLLDLLFERPVLTVPLVKDRLGITHAWANRLVQRLEEDGILTPVSERKRNRLYAAKEILEILEEARNA
soluble on expression in E. coli: soluble

MTSFNSFMRPLAAAILSALVTLAPVAPQAQEAVRGAVTNLPIPRFVSMKANEGNVRRGPSLTHRIDWVFKRRDMPLQITAEHGHWRKVQDRDGAGGWVHYALLSGVRTVLVEKDMMPLYARPDPASQVAAHFEMGVVARLGTCTQDWCRISAGGYRGWAPKENLWGVGTDEIRELEHHHHHH
soluble on expression in E. coli: not soluble

MGSDKIHHHHHHMKKTIIISMLLAAGAATYYFTQQTETPKGPRGRPTPNVVVAKAEMQPIRDEVEALGTGKANESITVTPKVTDMVTEINFNDGQMVDKGQLLVRLQDREQIARVTVARVKMKDHERELARISSLVTSQTVAALERDRLQTLIDTAKAELDQAESSLKDRRILAPFSGRLGLRQVSQGSLVTPGTVITTLDDISTIKLDFSVPERFLQSLAIGKSVEASAVAFEGELFTGKVVSVDSRINPTTRAVTVRAEIPNKGMRLLPGMLMKVKLIKQSREALIIPEAAIIPIQKDHFVYLVNDENVVERRQVQLGLRKRGWVEIVGGVDVGEQVMVRGILKVRPGDTVKVQYSEHFSFNQQAKVEPLA
soluble on expression in E. coli: not soluble

MGSDKIHHHHHHMMYKHVALLVRQDDMSHEEFVDYWQANHTPIAKDIEGVVRYQQVLPTEPAHAEFDGLAELYFETLEDLHEALGSPGSRDYDPTKEIAAKAREDVNNFLAVEERPRIIGEEIVQKDEVDGDTDGLYKHSAFLVRQDDMTHEEFVDYWQTNHTPIAREIEGVVKYNTVIPTDPENAEFDGVAELYFDDIEKLYDALGSEGLRDYAPDRGKAKAAREDVNNFLAIDERPRFIGQEQLVKDEG
soluble on expression in E. coli: not soluble

MKREEIADLMAFVVVAEERSFTRAAARLSMVQSALSQIVRRIEERLGLRLLTRTTRSVVPTEAGEHLLSVLGPILHDIDSALTSLSDLQNRPSGTIRITTVEHAAKTILLPAMRTFLKSHPEIDIQLTIDYGLTDVVSERFDAGVLRCTGNSGYYHLFFF
soluble on expression in E. coli: not soluble

MSFRIEEKIVLTASDMARLQADLQARGMVPLYPARLIRSVYFDTSGLQMFSDSEEGVLPRKKVRLRRYPEQADAGAVLETKISSVEGRFKTALPVAPETERRLLRQGHFDRDYGTLQAMVAVSYRRAYYSLDGLRITFDRDIAYARPDGQTARREAWTVCELKAPAEAPLDALHHILPVPRRRFSKFCNGVSAVIARALEHHHHHH
soluble on expression in E. coli: not soluble

AHHHHHHASAKWVCKICGYIYDEDAGDPDNGISPGTKFEELPDDWVCPICGAPKSEFEKLEDGSNPMPRKISFDPPSFIQLTRKQNKELLEFVLAEFEIYLPITTVHAYLLAKAFKGKNPKEEVQKLRDIVKIVDLTDELLGEIAEIDASLIKDGYFFTLEDLITAVSAITSKSLLVVNGNAEKYSPLRKYGLDCVNYEKFLEEVEVLAREEAKREKII
soluble on expression in E. coli: soluble

MASKLLQLKSKACEASKFVSKHGTTYYKQLLDKNKMYIQEPATIEKCNELSKQLLYTRLASIPGRSESFWKEVNHVKGLWKNRADLKVEDAGIAALFGLECFAWYCAGEIVGRGFTFTGYYP
soluble on expression in E. coli: not soluble

MAGFSVNSPKARKSDQELVAGVLEDKKQFAAIVQRYEEPLFRYIVRQGARDRELARDILQEVFIKVYLHLNDYDASLPFSSWIYRIAHNETITHFRKEKNRPLVLDKGDDDEFFGKIVDDLELSRADGQYDVSDIQTVLERLEPRYRDILVLKFFEDKSYEEISDILQMPQGTVATLINRAKKKVKASLEKN
soluble on expression in E. coli: not soluble

MTTVMKFGGTSVGSGERIRHVAKIVTKRKKEDDDVVVVVSAMSEVTNALVEISQQALDVRDIAKVGDFIKFIREKHYKAIEEAIKSEEIKEEVKKIIDSRIEELEKVLIGVAYLGELTPKSRDYILSFGERLSSPILSGAIRDLGEKSIALEGGEAGIITDNNFGSARVKRLEVKERLLPLLKEGIIPVVTGFIGTTEEGYITTLGRGGSDYSAALIGYGLDADIIEIWTDVSGVYTTDPRLVPTARRIPKLSYIEAMELAYFGAKVLHPRTIEPAMEKGIPILVKNTFEPESEGTLITNDMEMSDSIVKAISTIKNVALINIFGAGMVGVSGTAARIFKALGEEEVNVILISQGSSETNISLVVSEEDVDKALKALKREFGDFGKKSFLNNNLIRDVSVDKDVCVISVVGAGMRGAKGIAGKIFTAVSESGANIKMIAQGSSEVNISFVIDEKDLLNCVRKLHEKFIEKTNS
soluble on expression in E. coli: soluble

MPMKDISDFAANDPNKDYCVYCSRPDGEMQSFEEKKESLTKFIVKTQGADENVAWKIAENMMHKLPAWKEYFN
soluble on expression in E. coli: not soluble

MGSDKIHHHHHHMASLSELAVFIAVAEQGSFVGAGRVLGVSASAVGKRISRLEVDLGVRLLQRNTRSLALTAEGETVLSRGRSLLDEAESLRVVLERSSRQPGGVLRLSLPPIGGVLMAELAAFRQRYPEVALELDYSERNVDIIEEGFDAAIRVGAGDDGKLRSLALPGFRRLIVAAPDYLVRHGQPRSAAQLAEHQLIHYRSPNSGKLEAWPLVNAELPRALVCNSVHARLDFALQGQGIACLPDISIRRELEDGSLRPLLGSENGEKVVLRLLWPSSRGLSARMEAFLGFMRERSGAAPCENFKVRA
soluble on expression in E. coli: not soluble

MASEIHMTGPMCLIENTNGRLMANPEALKILSAITQPMVVVAIVGLYRTGKSYLMNKLAGKKKGFSLGSTVQSHTKGIWMWCVPHPKKPGHILVLLDTEGLGDVEKGDNQNDSWIFALAVLLSSTFVYNSIGTINQQAMDQLYYVTELTHRIRSKSSPDENENEVEDSADFVSFFPDFVWTLRDFSLDLEADGQPLTPDEYLTYSLKLKKGTSQKDETFNLPRLCIRKFFPKKKCFVFDRPVHRRKLAQLEKLQDEELDPEFVQQVADFCSYIFSNSKTKTLSGGIQVNGPRLESLVLTYVNAISSGDLPCMENAVLALAQIENSAAVQKAIAHYEQQMGQKVQLPTESLQELLDLHRDSEREAIEVFIRSSFKDVDHLFQKELAAQLEKKRDDFCKQNQEASSDRCSGLLQVIFSPLEEEVKAGIYSKPGGYRLFVQKLQDLKKKYYEEPRKGIQAEEILQTYLKSKESMTDAILQTDQTLTEKEKEIEVERVKAESAQASAKMLHEMQRKNEQMMEQKERSYQEHLKQLTEKMENDRVQLLKEQERTLALKLQEQEQLLKEGFQKESRIMKNEIQDLQTKMRRRKACTIS
soluble on expression in E. coli: soluble

MDHIVLTHVFNGGSAESAALCPQDKIIALDGYACTDFAAQWARYHVRAKINIHFFRAGILRQTVLTVQATALEHHHHHH
soluble on expression in E. coli: not soluble

MFLKRIELQREKVLSFQEYPFSIPAIKHFQRLELKSRVTFFVGENGSGKSTLLEAIADKCEFNTAGGGRNNYYEVDASESALGDYIRLSWLPKVSNGFFLRAESFYHFASHVDEVDARHAYGGRSLHHQSHGEAFLSLFANRFNRKGIYLLDEPEAALSPRRQLSFLAILHDLVSSGDSQFIIATHSPILLGYPHATILSFDHGTIEETTYEQTEHYQLTRYFLENRERMLRELLGELEHHHHHH
soluble on expression in E. coli: not soluble

MIVNDSVVIHASRDIAADAAGNISVTTADLKVSVMLRVADKPERATAQLVFRALSEVEAFKMRVADEVERLQHSFEQDFETRHRELDQEVARAAEDTIAHRLLERREYVNLRAIERNDDNIILRVTGGVWVGTELYLLFEIQNRDSTPYHLDRVRVVGAGEERAGAVAFEDRTYPEGGSMGSIASGQRGRGIVAVRNARQLAGQPVRLIVSEARERRAVSVGDIRWR
soluble on expression in E. coli: not soluble

MSLATKFQESEQQGRKREFMNQRNAFFILELELTQEETDAFLPLYNELDTKRYELWKDVRQKRALMERKAELTDADMELIINKSLDNKIAEARLEKEYYYKFKRVLPMRKVMALKVAERKFARLFLKSSYDEGHHHHHH
soluble on expression in E. coli: soluble

MREYKVVVLGSGGVGKSALTVQFVTGSFIEKYDPTIEDFYRKEIEVDSSPSVLEILDTAGTEQFASMRDLYIKNGQGFILVYSLVNQQSFQDIKPMRDQIIRVKRYERVPMILVGNKVDLEGEREVSYGEGKALAEEWSCPFMETSAKNKASVDELFAEIVRQMNYAAQPNGDEGCCSACVIL
soluble on expression in E. coli: soluble

MSLAARLIRSSRSNTFGIITDYVSTTPYSVDIVRGIQDWANANGKTILIANTGGSSEREVEIWKMFQSHRIDGVLYVTMYRRIVDPESGDVSIPTVMINCRPQTRELLPSIEPDDYQGARDLTRYLLERGHRRIGYIRLNPILLGAELRLDAFRRTTSEFGLTENDLSISLGMDGPVGAENNYVFAAATEMLKQDDRPTAIMSGNDEMAIQIYIAAMALGLRIPQDVSIVGFDDFRTVTMALKPELTTAALPYYDLGREGAKWLNDLIAGEKIYPGSRVVSCKLVERSSAAFGEGHHHHHH
soluble on expression in E. coli: soluble
